Experimental data as given in article PMC6065417, “Neutralization of Junín virus by single domain antibodies targeted against the nucleoprotein” (Scientific Reports, 2018).

What was measured:
Conditions in all cases: one partner purified
[1] = target: T1, Junín virus nucleoprotein (N) in Candid#1-infected cells (Junin mammarenavirus, Candid#1, UniProt F4ZL09, strain); assay: co-IP
T1 construct: also called viral N; Candid#1N

[2] = target: T2, Junín virus nucleoprotein (N) of strain Candid#1, expressed from a plasmid (Junin mammarenavirus, Candid#1, UniProt F4ZL09, strain); assay: immunostaining of cells or tissue
T2 construct: also called N from Candid#; Candid#1N; source: Vero cells, transfected (Fugene), in fixed and permeabilized cells

[3] = target: T3, Junín virus nucleoprotein (N) of strain XJCl3, expressed from a plasmid (Junín virus (Junin mammarenavirus), …, UniProt F4ZL09, strain); assay: immunostaining of cells or tissue
T3 construct: also called N from XJCl3

Measured: binding result

B1: VHH 2.3 (VHH)
VHH: QVQLVESGGGLVQPGGSLRLSCAASGSIDSINAMAWYRQAPGKERELVAGISKNGIPWYLDSLKGRFNVSRDNAKNTLYLQIHNLKPEDAAMYYCASSSRTIATTTNEFDFWGQGTQVTVSS
notes: source: E. coli, periplasmic extract, purified (Ni-NTA); not shown: His6, C-terminal, kept
binds: all assays above
